From patent US20200115430A1 (I2O THERAPEUTICS, published 2020)
Starred links: 1 amine or outer side, 2 acyl side, 3 side chain; linkers in the order of their positions; H or OH if unused. Positions of bridges follow the written chain, without caps; N, C: chain ends. Groups on a side chain read outwards from the residue. Primed or numbered codes have the meaning given here. No end group written: not given here. *: point of attachment. dpeg″ = —[CO(CH2)O(CH2)2O(CH2)NH]— spacer unit, O=C(COCCOCN[*:1])[*:2]; C20 diacid = O=C(O)CCCCCCCCCCCCCCCCCCC(=O)*; C18 diacid = O=C(O)CCCCCCCCCCCCCCCCC(=O)*; γGlu = O=C(O)[C@H](CCC(=O)[*:2])N[*:1]; Palmitoyl = CCCCCCCCCCCCCCCC(=O)*

T1: human amylin 3 receptor (human, UniProt P30988 25-474; O60896 24-148)
T1 sequence (looked up) 1: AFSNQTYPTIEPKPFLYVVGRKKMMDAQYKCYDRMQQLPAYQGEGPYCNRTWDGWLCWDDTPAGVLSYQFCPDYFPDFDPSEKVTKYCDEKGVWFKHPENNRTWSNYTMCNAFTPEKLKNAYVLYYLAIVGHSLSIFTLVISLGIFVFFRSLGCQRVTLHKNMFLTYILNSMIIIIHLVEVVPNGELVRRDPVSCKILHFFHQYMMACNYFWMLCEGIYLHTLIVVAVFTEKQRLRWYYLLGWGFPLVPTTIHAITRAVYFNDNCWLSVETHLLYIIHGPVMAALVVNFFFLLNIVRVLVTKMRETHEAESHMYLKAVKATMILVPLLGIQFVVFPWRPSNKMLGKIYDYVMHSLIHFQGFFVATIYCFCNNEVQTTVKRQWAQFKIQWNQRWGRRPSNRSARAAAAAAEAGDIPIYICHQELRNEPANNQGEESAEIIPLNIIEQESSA
T1 sequence (looked up) 2: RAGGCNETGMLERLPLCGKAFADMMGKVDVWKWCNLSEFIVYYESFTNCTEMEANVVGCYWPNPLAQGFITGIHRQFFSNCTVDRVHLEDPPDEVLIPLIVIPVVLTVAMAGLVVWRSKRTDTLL

T2: human calcitonin receptor (human, UniProt P30988 25-474)
T2 sequence (looked up): T1 sequence (looked up) 1

B1: Compound A107 (peptide)
peptide: SCNTSTCATQRLK([γGlu-Palmitoyl])NELHKSSNNFGPILPPTKVGSETY-NH2
modifications: disulfide 2-7; N-terminus assumed
SMILES: CCCCCCCCCCCCCCCC(=O)N[C@@H](CCC(=O)NCCCC[C@H](NC(=O)[C@H](CC(C)C)NC(=O)[C@H](CCCNC(=N)N)NC(=O)[C@H](CCC(N)=O)NC(=O)[C@@H](NC(=O)[C@H](C)NC(=O)[C@@H]1CSSC[C@H](NC(=O)[C@@H](N)CO)C(=O)N[C@@H](CC(N)=O)C(=O)N[C@@H]([C@@H](C)O)C(=O)N[C@@H](CO)C(=O)N[C@@H]([C@@H](C)O)C(=O)N1)[C@@H](C)O)C(=O)N[C@@H](CC(N)=O)C(=O)N[C@@H](CCC(=O)O)C(=O)N[C@@H](CC(C)C)C(=O)N[C@@H](Cc1c[nH]cn1)C(=O)N[C@@H](CCCCN)C(=O)N[C@@H](CO)C(=O)N[C@@H](CO)C(=O)N[C@@H](CC(N)=O)C(=O)N[C@@H](CC(N)=O)C(=O)N[C@@H](Cc1ccccc1)C(=O)NCC(=O)N1CCC[C@H]1C(=O)N[C@H](C(=O)N[C@@H](CC(C)C)C(=O)N1CCC[C@H]1C(=O)N1CCC[C@H]1C(=O)N[C@H](C(=O)N[C@@H](CCCCN)C(=O)N[C@H](C(=O)NCC(=O)N[C@@H](CO)C(=O)N[C@@H](CCC(=O)O)C(=O)N[C@H](C(=O)N[C@@H](Cc1ccc(O)cc1)C(N)=O)[C@@H](C)O)C(C)C)[C@@H](C)O)[C@@H](C)CC)C(=O)O
B2: Compound A120 (peptide)
peptide: K(C18 diacid)CNTSTCATQRLANELHKSSNNFGPILPPTKVGSETY-NH2
modifications: disulfide 2-7; N-terminus assumed
SMILES: CC[C@H](C)[C@H](NC(=O)[C@@H]1CCCN1C(=O)CNC(=O)[C@H](Cc1ccccc1)NC(=O)[C@H](CC(N)=O)NC(=O)[C@H](CC(N)=O)NC(=O)[C@H](CO)NC(=O)[C@H](CO)NC(=O)[C@H](CCCCN)NC(=O)[C@H](Cc1c[nH]cn1)NC(=O)[C@H](CC(C)C)NC(=O)[C@H](CCC(=O)O)NC(=O)[C@H](CC(N)=O)NC(=O)[C@H](C)NC(=O)[C@H](CC(C)C)NC(=O)[C@H](CCCNC(=N)N)NC(=O)[C@H](CCC(N)=O)NC(=O)[C@@H](NC(=O)[C@H](C)NC(=O)[C@@H]1CSSC[C@H](NC(=O)[C@@H](N)CCCCNC(=O)CCCCCCCCCCCCCCCCC(=O)O)C(=O)N[C@@H](CC(N)=O)C(=O)N[C@@H]([C@@H](C)O)C(=O)N[C@@H](CO)C(=O)N[C@@H]([C@@H](C)O)C(=O)N1)[C@@H](C)O)C(=O)N[C@@H](CC(C)C)C(=O)N1CCC[C@H]1C(=O)N1CCC[C@H]1C(=O)N[C@H](C(=O)N[C@@H](CCCCN)C(=O)N[C@H](C(=O)NCC(=O)N[C@@H](CO)C(=O)N[C@@H](CCC(=O)O)C(=O)N[C@H](C(=O)N[C@@H](Cc1ccc(O)cc1)C(N)=O)[C@@H](C)O)C(C)C)[C@@H](C)O
B3: Compound A119 (peptide)
peptide: K([γGlu-C20 diacid])CNTSTCATQRLANELHKSSNNFGPILPPTKVGSETY-NH2
modifications: disulfide 2-7; N-terminus assumed
SMILES: CC[C@H](C)[C@H](NC(=O)[C@@H]1CCCN1C(=O)CNC(=O)[C@H](Cc1ccccc1)NC(=O)[C@H](CC(N)=O)NC(=O)[C@H](CC(N)=O)NC(=O)[C@H](CO)NC(=O)[C@H](CO)NC(=O)[C@H](CCCCN)NC(=O)[C@H](Cc1c[nH]cn1)NC(=O)[C@H](CC(C)C)NC(=O)[C@H](CCC(=O)O)NC(=O)[C@H](CC(N)=O)NC(=O)[C@H](C)NC(=O)[C@H](CC(C)C)NC(=O)[C@H](CCCNC(=N)N)NC(=O)[C@H](CCC(N)=O)NC(=O)[C@@H](NC(=O)[C@H](C)NC(=O)[C@@H]1CSSC[C@H](NC(=O)[C@@H](N)CCCCNC(=O)CC[C@H](NC(=O)CCCCCCCCCCCCCCCCCCC(=O)O)C(=O)O)C(=O)N[C@@H](CC(N)=O)C(=O)N[C@@H]([C@@H](C)O)C(=O)N[C@@H](CO)C(=O)N[C@@H]([C@@H](C)O)C(=O)N1)[C@@H](C)O)C(=O)N[C@@H](CC(C)C)C(=O)N1CCC[C@H]1C(=O)N1CCC[C@H]1C(=O)N[C@H](C(=O)N[C@@H](CCCCN)C(=O)N[C@H](C(=O)NCC(=O)N[C@@H](CO)C(=O)N[C@@H](CCC(=O)O)C(=O)N[C@H](C(=O)N[C@@H](Cc1ccc(O)cc1)C(N)=O)[C@@H](C)O)C(C)C)[C@@H](C)O
B4: Compound A115 (peptide)
peptide: K(C20 diacid)CNTSTCATQRLANELHKSSNNFGPILPPTKVGSETY-NH2
modifications: disulfide 2-7; N-terminus assumed
SMILES: CC[C@H](C)[C@H](NC(=O)[C@@H]1CCCN1C(=O)CNC(=O)[C@H](Cc1ccccc1)NC(=O)[C@H](CC(N)=O)NC(=O)[C@H](CC(N)=O)NC(=O)[C@H](CO)NC(=O)[C@H](CO)NC(=O)[C@H](CCCCN)NC(=O)[C@H](Cc1c[nH]cn1)NC(=O)[C@H](CC(C)C)NC(=O)[C@H](CCC(=O)O)NC(=O)[C@H](CC(N)=O)NC(=O)[C@H](C)NC(=O)[C@H](CC(C)C)NC(=O)[C@H](CCCNC(=N)N)NC(=O)[C@H](CCC(N)=O)NC(=O)[C@@H](NC(=O)[C@H](C)NC(=O)[C@@H]1CSSC[C@H](NC(=O)[C@@H](N)CCCCNC(=O)CCCCCCCCCCCCCCCCCCC(=O)O)C(=O)N[C@@H](CC(N)=O)C(=O)N[C@@H]([C@@H](C)O)C(=O)N[C@@H](CO)C(=O)N[C@@H]([C@@H](C)O)C(=O)N1)[C@@H](C)O)C(=O)N[C@@H](CC(C)C)C(=O)N1CCC[C@H]1C(=O)N1CCC[C@H]1C(=O)N[C@H](C(=O)N[C@@H](CCCCN)C(=O)N[C@H](C(=O)NCC(=O)N[C@@H](CO)C(=O)N[C@@H](CCC(=O)O)C(=O)N[C@H](C(=O)N[C@@H](Cc1ccc(O)cc1)C(N)=O)[C@@H](C)O)C(C)C)[C@@H](C)O
B5: Compound A109 (peptide)
peptide: K([γGlu-C18 diacid])CNTSTCATSRLANFLQKSSNNFGPILPPTKVGSETY-NH2
modifications: disulfide 2-7; N-terminus assumed
SMILES: CC[C@H](C)[C@H](NC(=O)[C@@H]1CCCN1C(=O)CNC(=O)[C@H](Cc1ccccc1)NC(=O)[C@H](CC(N)=O)NC(=O)[C@H](CC(N)=O)NC(=O)[C@H](CO)NC(=O)[C@H](CO)NC(=O)[C@H](CCCCN)NC(=O)[C@H](CCC(N)=O)NC(=O)[C@H](CC(C)C)NC(=O)[C@H](Cc1ccccc1)NC(=O)[C@H](CC(N)=O)NC(=O)[C@H](C)NC(=O)[C@H](CC(C)C)NC(=O)[C@H](CCCNC(=N)N)NC(=O)[C@H](CO)NC(=O)[C@@H](NC(=O)[C@H](C)NC(=O)[C@@H]1CSSC[C@H](NC(=O)[C@@H](N)CCCCNC(=O)CC[C@H](NC(=O)CCCCCCCCCCCCCCCCC(=O)O)C(=O)O)C(=O)N[C@@H](CC(N)=O)C(=O)N[C@@H]([C@@H](C)O)C(=O)N[C@@H](CO)C(=O)N[C@@H]([C@@H](C)O)C(=O)N1)[C@@H](C)O)C(=O)N[C@@H](CC(C)C)C(=O)N1CCC[C@H]1C(=O)N1CCC[C@H]1C(=O)N[C@H](C(=O)N[C@@H](CCCCN)C(=O)N[C@H](C(=O)NCC(=O)N[C@@H](CO)C(=O)N[C@@H](CCC(=O)O)C(=O)N[C@H](C(=O)N[C@@H](Cc1ccc(O)cc1)C(N)=O)[C@@H](C)O)C(C)C)[C@@H](C)O

Biological target: T1, human amylin 3 receptor
Test: cell-based or functional assay

| pEC50 (cAMP accumulation), 0% HSA | pEC50 (cAMP accumulation), 0.1% HSA | pEC50 (cAMP accumulation), 4% HSA | Binder |
| --- | --- | --- | --- |
| 12.5 pEC50 | 11.6 pEC50 | 10.3 pEC50 | B1 |
| 11.4 pEC50 | 9.7 pEC50 | 8.4 pEC50 | B2 |
| 12.3 pEC50 | 10.6 pEC50 | 9 pEC50 | K([dpeg″-dpeg″-γGlu-C18 diacid])CNTSTCATQRLANELHKSSNNFGPILPPTKVGSETY-NH2 (disulfide 2-7) [Compound A113] |
| 11.9 pEC50 | 10.2 pEC50 | 8.5 pEC50 | B3 |
| 12.3 pEC50 | 10.7 pEC50 | 9.4 pEC50 | B4 |
| 12.2 pEC50 | 11.1 pEC50 | 9.6 pEC50 | B5 |

Biological target: T2, human calcitonin receptor
Test: cell-based or functional assay

| pEC50 (cAMP accumulation), 0% HSA | pEC50 (cAMP accumulation), 0.1% HSA | pEC50 (cAMP accumulation), 4% HSA | Binder |
| --- | --- | --- | --- |
| 11.5 pEC50 | 10.5 pEC50 | 9 pEC50 | B1 |
| 10.3 pEC50 | 8.9 pEC50 | 7.4 pEC50 | B2 |
| 11.3 pEC50 | 9.7 pEC50 | 8.1 pEC50 | K([dpeg″-dpeg″-γGlu-C18 diacid])CNTSTCATQRLANELHKSSNNFGPILPPTKVGSETY-NH2 (disulfide 2-7) [Compound A113] |
| 11.2 pEC50 | 9.5 pEC50 | 7.9 pEC50 | B3 |
| 11.5 pEC50 | 9.9 pEC50 | 8.5 pEC50 | B4 |
| 11.7 pEC50 | 10.5 pEC50 | 9 pEC50 | B5 |
